Test results taken from patent US20050037969A1 (ARBOR VITA, published 2005).
Ends that are not written are not given here. * marks the point of attachment. Biotin = O=C1N[C@H]2[C@H](CS[C@H]2CCCCC(=O)*)N1

T1: K858 PDZ-GST fusion protein (Homo sapiens (Human), UniProt Q8WWI1 1038-1131)
T1 construct: Order of GST and PDZ part and limits not seen in the excerpts
T1 sequence: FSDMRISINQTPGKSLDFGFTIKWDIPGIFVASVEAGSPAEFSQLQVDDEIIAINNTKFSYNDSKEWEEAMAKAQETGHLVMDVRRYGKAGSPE

T2: GST-AF6 PDZ domain fusion protein (Homo sapiens (Human), UniProt P55196 1001-1093)
T2 construct: also called af-6 protein; not shown: glutathione S-transferase encoded by vector pGEX-3X (Pharmacia)
T2 sequence: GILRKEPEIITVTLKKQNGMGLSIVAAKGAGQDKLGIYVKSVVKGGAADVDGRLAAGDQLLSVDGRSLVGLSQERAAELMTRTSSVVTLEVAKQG

T3: GST-cytohesin binding protein PDZ domain fusion protein (Homo sapiens (Human), UniProt O60759 74-165)
T3 construct: also called CBP; not shown: glutathione S-transferase encoded by vector pGEX-3X (Pharmacia)
T3 sequence: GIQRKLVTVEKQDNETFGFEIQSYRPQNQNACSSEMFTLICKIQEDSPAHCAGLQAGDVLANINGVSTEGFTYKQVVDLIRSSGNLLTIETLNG

T4: GST-KIAA0303 PDZ domain fusion protein (Homo sapiens (Human), UniProt O15021 1138-1228)
T4 construct: also called K303; not shown: glutathione S-transferase encoded by vector pGEX-3X (Pharmacia)
T4 sequence: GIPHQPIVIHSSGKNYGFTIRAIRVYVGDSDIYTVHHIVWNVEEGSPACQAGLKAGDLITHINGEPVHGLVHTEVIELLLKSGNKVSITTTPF

T5: SP short PDZ-GST fusion protein (Homo sapiens (Human), UniProt O43464 350-435)
T5 construct: The label SP short is not explained in the excerpts
T5 sequence: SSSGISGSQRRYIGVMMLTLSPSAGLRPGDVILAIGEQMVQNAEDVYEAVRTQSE

T6: ConEn PDZ-GST fusion protein (Homo sapiens (Human), UniProt Q969H4 193-287)
T6 construct: The label ConEn is not explained in the excerpts
T6 sequence: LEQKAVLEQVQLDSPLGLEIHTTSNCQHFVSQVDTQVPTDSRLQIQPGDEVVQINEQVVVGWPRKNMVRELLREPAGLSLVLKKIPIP

T7: GST-RGS12 PDZ domain fusion protein (human, UniProt O14924 17-85)
T7 construct: also called human regulator of G-protein signalling 12; not shown: glutathione S-transferase encoded by vector pGEX-3X (Pharmacia)
T7 sequence: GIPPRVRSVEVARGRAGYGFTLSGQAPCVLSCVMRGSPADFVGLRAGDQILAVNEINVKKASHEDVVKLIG

T8: GST-TAX-IP40 PDZ domain fusion protein (human, UniProt Q6B4M5 150-252 (rat entry))
T8 construct: also called TAX40; not shown: glutathione S-transferase encoded by vector pGEX-3X (Pharmacia)
T8 sequence: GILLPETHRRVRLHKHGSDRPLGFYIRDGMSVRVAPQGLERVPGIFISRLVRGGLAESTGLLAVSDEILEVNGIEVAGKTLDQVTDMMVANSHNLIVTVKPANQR

T9: GST-PTN-4 PDZ domain fusion protein (Homo sapiens (Human), UniProt P29074 517-605)
T9 construct: also called protein-tyrosine phosphatase meg1; not shown: glutathione S-transferase encoded by vector pGEX-3X (Pharmacia)
T9 sequence: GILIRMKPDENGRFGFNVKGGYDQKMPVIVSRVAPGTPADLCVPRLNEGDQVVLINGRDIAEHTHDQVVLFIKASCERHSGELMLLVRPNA

T10: GST-prIL16 fusion protein (PDZ domains 1-2) (Homo sapiens (Human), UniProt Q14005 1111-1324)
T10 construct: also called putative interleukin 16 precursor; not shown: glutathione S-transferase encoded by vector pGEX-3X (Pharmacia)
T10 sequence: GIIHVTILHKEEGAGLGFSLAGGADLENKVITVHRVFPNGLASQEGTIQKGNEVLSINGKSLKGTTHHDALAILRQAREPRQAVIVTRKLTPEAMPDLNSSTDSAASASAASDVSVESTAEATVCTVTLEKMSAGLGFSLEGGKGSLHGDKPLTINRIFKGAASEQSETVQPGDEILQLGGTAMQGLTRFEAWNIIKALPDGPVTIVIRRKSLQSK

T11: GST-MPP1 PDZ domain fusion protein (Homo sapiens (Human), UniProt Q00013 67-152)
T11 construct: also called p55; 55 Kd erythrocyte membrane protein; not shown: glutathione S-transferase encoded by vector pGEX-3X (Pharmacia)
T11 sequence: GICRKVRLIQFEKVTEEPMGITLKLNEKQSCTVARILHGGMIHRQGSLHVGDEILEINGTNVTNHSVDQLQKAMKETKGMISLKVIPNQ

T12: GST-TAX-IP2 PDZ domain fusion protein (human, UniProt O14908 129-216)
T12 construct: also called TAX-1P2; TAX2; not shown: glutathione S-transferase encoded by vector pGEX-3X (Pharmacia)
T12 chain: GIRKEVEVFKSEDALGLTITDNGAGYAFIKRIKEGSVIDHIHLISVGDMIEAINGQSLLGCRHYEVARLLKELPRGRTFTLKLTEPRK

B1: PAG C-terminal peptide AA58L, biotinylated (peptide)
peptide: Biotin-KENDYESISDLQQGRDITRL
notes: also called Phosphoprotein Associated with GEMs

The binders below were run against T13, GST-TIAM1 PDZ domain fusion protein (Homo sapiens (Human), UniProt Q13009 845-931) (assay: A/G assays).
T13 construct: also called TLAM1; T-lymphoma invasion and metastasis inducing protein 1; not shown: glutathione S-transferase encoded by vector pGEX-3X (Pharmacia)
T13 sequence (Q13009 other isoform, or with tags, fused parts or gaps): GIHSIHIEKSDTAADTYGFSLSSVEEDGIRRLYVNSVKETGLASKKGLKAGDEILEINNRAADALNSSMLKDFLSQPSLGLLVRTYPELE

binding result | Binder
no binding | B1
no binding | Biotin-HKAEIHAQPSDKERLTSDA (also called CD49F (Aform, alpha6)) [CD49F C-terminal peptide AA12L, biotinylated]

What follows are binders tested against T14, NSP PDZ-GST fusion protein (Homo sapiens (Human), UniProt Q92743 370-466) (assay: A/G assays).
T14 construct: The label NSP is not explained in the excerpts
T14 sequence (Q92743 other isoform, or with tags, fused parts or gaps limits assumed): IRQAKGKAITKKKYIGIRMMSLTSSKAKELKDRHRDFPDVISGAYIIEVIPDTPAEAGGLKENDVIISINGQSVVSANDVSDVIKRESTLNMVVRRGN

binding result | Binder
no binding | B1
no binding | Biotin-HKAEIHAQPSDKERLTSDA (also called CD49F (Aform, alpha6)) [CD49F C-terminal peptide AA12L, biotinylated]

Each binder was assayed against T1, K858 PDZ-GST fusion protein (assay: A/G assays).

binding result | Binder
no binding | B1
no binding | Biotin-HKAEIHAQPSDKERLTSDA (also called CD49F (Aform, alpha6)) [CD49F C-terminal peptide AA12L, biotinylated]

These binders were tested against T2, GST-AF6 PDZ domain fusion protein (assay: A/G assays).

binding result | Binder
no binding | B1
no binding | Biotin-HKAEIHAQPSDKERLTSDA (also called CD49F (Aform, alpha6)) [CD49F C-terminal peptide AA12L, biotinylated]

Each binder was assayed against T3, GST-cytohesin binding protein PDZ … (assay: A/G assays).

binding result | Binder
no binding | B1
no binding | Biotin-HKAEIHAQPSDKERLTSDA (also called CD49F (Aform, alpha6)) [CD49F C-terminal peptide AA12L, biotinylated]

Each binder was assayed against T4, GST-KIAA0303 PDZ domain fusion protein (assay: A/G assays).

binding result | Binder
no binding | B1
no binding | Biotin-HKAEIHAQPSDKERLTSDA (also called CD49F (Aform, alpha6)) [CD49F C-terminal peptide AA12L, biotinylated]

These binders were tested against T5, SP short PDZ-GST fusion protein (assay: A/G assays).

binding result | Binder
no binding | B1
no binding | Biotin-HKAEIHAQPSDKERLTSDA (also called CD49F (Aform, alpha6)) [CD49F C-terminal peptide AA12L, biotinylated]

Each binder was assayed against T6, ConEn PDZ-GST fusion protein (assay: A/G assays).

binding result | Binder
no binding | B1
no binding | Biotin-HKAEIHAQPSDKERLTSDA (also called CD49F (Aform, alpha6)) [CD49F C-terminal peptide AA12L, biotinylated]

The binders below were run against T7, GST-RGS12 PDZ domain fusion protein (assay: A/G assays).

binding result | Binder
no binding | B1
no binding | Biotin-HKAEIHAQPSDKERLTSDA (also called CD49F (Aform, alpha6)) [CD49F C-terminal peptide AA12L, biotinylated]

The binders below were run against T15, PICK1 PDZ-GST fusion protein (Bos taurus (Bovine), UniProt Q2T9M1 17-105) (assay: A/G assays).
T15 construct: Order of GST and PDZ part and limits not seen in the excerpts
T15 sequence (Q2T9M1 other isoform, or with tags, fused parts or gaps limits assumed): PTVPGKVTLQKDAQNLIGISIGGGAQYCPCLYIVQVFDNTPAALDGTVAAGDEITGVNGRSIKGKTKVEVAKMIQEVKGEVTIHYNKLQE

binding result | Binder
no binding | B1
no binding | Biotin-HKAEIHAQPSDKERLTSDA (also called CD49F (Aform, alpha6)) [CD49F C-terminal peptide AA12L, biotinylated]

What follows are binders tested against T8, GST-TAX-IP40 PDZ domain fusion protein (assay: A/G assays).

binding result | Binder
no binding | B1
no binding | Biotin-HKAEIHAQPSDKERLTSDA (also called CD49F (Aform, alpha6)) [CD49F C-terminal peptide AA12L, biotinylated]

These binders were tested against T9, GST-PTN-4 PDZ domain fusion protein (assay: A/G assays).

binding result | Binder
no binding | B1
no binding | Biotin-HKAEIHAQPSDKERLTSDA (also called CD49F (Aform, alpha6)) [CD49F C-terminal peptide AA12L, biotinylated]

Each binder was assayed against T10, GST-prIL16 fusion protein (PDZ domains …) (assay: A/G assays).

binding result | Binder
no binding | B1
no binding | Biotin-HKAEIHAQPSDKERLTSDA (also called CD49F (Aform, alpha6)) [CD49F C-terminal peptide AA12L, biotinylated]

The binders below were run against T16, NOS1 PDZ-GST fusion protein (Homo sapiens (Human), UniProt P29475 11-100) (assay: A/G assays).
T16 construct: Order of GST and PDZ part and limits not seen in the excerpts
T16 sequence (P29475 11-100 limits assumed): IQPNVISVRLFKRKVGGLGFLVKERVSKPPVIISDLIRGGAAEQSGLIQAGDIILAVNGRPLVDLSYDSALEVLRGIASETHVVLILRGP

binding result | Binder
no binding | B1
no binding | Biotin-HKAEIHAQPSDKERLTSDA (also called CD49F (Aform, alpha6)) [CD49F C-terminal peptide AA12L, biotinylated]

These binders were tested against T11, GST-MPP1 PDZ domain fusion protein (assay: A/G assays).

binding result | Binder
no binding | B1
no binding | Biotin-HKAEIHAQPSDKERLTSDA (also called CD49F (Aform, alpha6)) [CD49F C-terminal peptide AA12L, biotinylated]

Target: T12, GST-TAX-IP2 PDZ domain fusion protein
Assay: A/G assays

binding result | Binder
no binding | B1
no binding | Biotin-HKAEIHAQPSDKERLTSDA (also called CD49F (Aform, alpha6)) [CD49F C-terminal peptide AA12L, biotinylated]
